Laboratory results as given in the DeepSol protein solubility set.

Test: soluble on expression in E. coli; label from the status in PepcDB or PDB records

Row | Sequence | soluble on expression in E. coli
1 | ATRSPGVVISDDEPGYDLDLFCIPNHYAEDLERVFIPHGLIMDRTERLARDVMKEMGGHHIVALCVLKGGYKFFADLLDYIKALNRNSDRSIPMTVDFIRLKSYCNDQSTGDIKVIGGDDLSTLTGKNVLIVEDIIDTGKTMQTLLSLVRQYNPKMVKVASLLVKRTPRSVGYKPDFVGFEIPDKFVVGYALDYNEYFRDLNHVCVISETGKAKYKA | soluble
2 | MSLKHVAVYLRLSRGEDESELDNHKTRLLNRCELNNWSYELYKEIGSGSTIDDRPVMQKLLTDVEKNLYDAVLVVDLDRLSRGNGTDNDRILYSMKVSETLIVVESPYQVLDANNESDEEIILFKGFFARFEFKQINKRMREGKKLAQSRGQWVNSVTPYGYIVNKTTKKLTPSEEEAKVVIMIKDFFFEGKSTSDIAWELNKRKIKPRRATEWRSSSIANILQNEVYVGNIVYNKSVGNKKPSKSKTRVTTPYRRLPEEEWRRVYNAHQPLYSKEEFDRIKQYFECNVKSHKGSEVRTYALTGLCKTPDGKTMRVTQGKKGTDDDLYLFPKKNKHGDSSIYKGISYNVVYETLKEVILQVKDYLDSVLDQNENKDLVEELKEELMKKEDELETIQKAKNRIVQGFLIGLYDEQDSIELKVEKEKEIDEKEKEIEAIKMKIDNAKTVNNSIKKTKIERLLSDVQSAESEKEINRFYKTLIKEIIVDRTDENEAKIKVNFLEGHHHHHH | not soluble
3 | AKKLKKEYLDWYNQILEFSNLSNNSVKIDTPFKDNSLDNLKIYALYDQSRDMITLTDDGYTIFGLENNGVSINKFKKRKKIFEEHLSAYGIKYNDKTHEIFVQTNFKNFNKSKHNLLQCLIFVNDMYLLSNPKSQNIFTEDVANKLDEHNIYYGRDIPIIGSSGVVHNFDFFISAKKNQKEKFINVFSNPNNSMIIKSKITDAMQAKKIKRHRQNEFIFILNDSKKEINEHNKNLLHENYISTIDYSELDEKIGLL | not soluble
4 | MSWINRIFSKSPSSSTRKANVPEGVWTKCTACEQVLYSEELKRNLYVCPKCGHHMRIDARERLLNLLDEDSSQEIAADLEPKDILKFKDLKKYKDRINAAQKETGEKDALITMTGTLYNMPIVVAASNFAFMGGSMGSVVGAKFVKAAEKAMEMNCPFVCFSASGGARMQEALFSLMQMAKTSAVLAQMREKGVPFISVLTDPTLGGVSASFAMLGDLNIAEPKALIGFAGPRVIEQTVREKLPEGFQRSEFLLEKGAIDMIVKRSEMRQTLASVLSKLTNQPSPFVEPELISEDE | not soluble
5 | GMPRPKLKSDDEVLEAATVVLKRCGPIEFTLSGVAKEVGLSRAALIQRFTNRDTLLVRMMERGVEQVRHYLNAIPIGAGPQGLWEFLQVLVRSMNTRNDFSVNYLISWYELQVPELRTLAIQRNRAVVEGIRKRLPPGAPAAAELLLHSVIAGATMQWAVDPDGELADHVLAQIAAILCLMFPEHDDFQLLQAHA | soluble
6 | MAHHHHHHMSFHPRDAFILHQEYIQRLNEGDEVDTSAEQKVELNLQRHADSESAATVTFSHEDHTLGNPLRHVIMEDPSVTSAGYAIPHPLEAKMQLHVQSSEYAVETVAKGLERLAAICDETLKSFNACVEAISAEDPEGH | not soluble
7 | MGSDKIHHHHHHMEEIVLFHTNDLHSHFENWPKIRRLVKAKRSLYQKEGKTVVTIDLGDFSDRCHPLTEATDGRANVAIMNTLAYDLVTIGNNEGIGNSKKQLEHLYDQATFEVVLANLEEPKTQTLPDFCQAYKIMTTKEGTKLGFIGLTAPFPLTYNPNGWTIKQVEAVLPQLITEVAPQCDVLILLSHLGIDTDFMIAANYPEIQVILGSHTHHLFKDGEKINHVQLAAAGKYGQYIGEVHLFVDADTKQVTSYAKTIETASLEEQATDAKEIAGYLTEGHRLLQAQQIAQIPETLSTDLRQPHAFITVALKALKEAGQTEAAVLNNGLFLADLPEGIINADQLHEALPHPMHLIKVTLKGSDMSRLIREMEKSRQFLRKFPIRGMGFRGKIFGELCYDGIRFEPNSQTVFWQGKPIQPEQKYTLTTVDHFQFVPFFPTIELVGEVEFLFPDVLRTVVANYLHAHYPIK | not soluble
8 | WCYEIQTEDPRSSCLGPEKWPGACKENQQSPINIVTARTKVNPRLTPFILVGYDQKQQWPIKNNQHTVEMTLGGGACIIGGDLPARYEAVQLHLHWSNGNDNGSEHSIDGRHFAMEMHIVHKKLTSSKEDSKDKFAVLAFMIEVGDKVNKGFQPLVEALPSISKPHSTSTVRESSLQDMLPPSTKMYTYFRYNGSLTTPNCDETVIWTVYKQPIKIHKNQFLEFSKNLYYDEDQKLNMKDNVRPLQPLGKRQVFKSHA | soluble
9 | MEETVDQAANSRTISLPISRVRLIMKSSPDVSCINQDALFLTTKATELFVQHLALSSYENGPSKDTNTLSYSDLADTVEETETFQFLTDILPKKILARDYLKTLEEMEKEDDNM | not soluble
10 | MSLSDQTLQDILRYLTEETGLAPFQVANTVELLREGGTVPFIARYRKERTGELDEVGIRGIEERLAYFTELEERKLTVLKSIEEQGKLTPELADRIRTSRQKTEVEDLYLPYKPKRRTKATIARERGLEPLADLMAAQELTAGTPEEATLPFVDPAGEVPDAAAALEGAGHILAERLADDADARAFVRRLTADQGIFCSRVAADRKGAVTKFEMYYDHREPLKSVPSHRMLAMRRGEKEEVLVLTIEAPTEEILAGLRARIAGRASIFRQLLEGAAEDAYKRLIAPSIEVELRLEAKQRADEAAITVFAQNLRNLLLAPPAGGKRVLGVDPGLRTGSKLAAVDGTGRFLEHVTIYPHAGGEGKVAAAKREFLRLVECHGIEMVAVGNGTAGREMEQFAKETLAEGGKRIPVVMVSEAGASVYSASEIAREEFPDLDLTVRGAISIARRLQDPLAELVKIDPKSIGVGQYQHDVDQRALKKSLDAVVESCVNYVGVDLNTASWALLSYVSGVGPSLARAIVRHRDEHGPFPARRALMKVPRFGDKAFEQAAGFLRIRGGEHPLDATAVHPERYPVVEAMATDLGVSLSQLAADPALPARIDLKRYVTDAVGLPTLRDIMEELKKPGRDPREEFRTAAFRDDVTEIGDLKEGMVLQGVVTNVTAFGAFVDVGVHQDGLVHVSHLSVKFVKDPAEAVRVGQVVQVKVLSVDVQRKRISLSIREAAPGGAPRSTEGHHHHHH | soluble
11 | MNFLSQRYTGKSLHPDETKCYKNFTQTAQKLTHRLAESINHYVNHIDCVINTNLYNRLLAEKKESNHMIYKERETWLEAILNTLPDHVFILDESGRYIESFGGTHHSKTFNAERYIGLQLSDVLSPTKADELMGFIFDVMQDNETKVVKYNLSLHDHLLLPIEELEALENPEEMWFEAIIKPVNAPENANKLVIWSVRDITKTHLLEQRLK | not soluble
12 | GMSVPQRPHQFVLTLSCPSAAGQVAAVVGLLDRHRCYVDELTVFDDDLSARFFVRCVFHATDDADALRVDALRREFEPIAERFRMQWAIHDVAARPKVLIMVSKLEHCLADLLFRWKMGELKMDIVGIVSNHPDFAPLAAQHGLPFRHFPITADTKAQQEAQWLDVFETSGAELVILARYMQVLSPEASARLANRAINIHHSFLPGFKGAKPYHQAHARGVKLIGATAHFVTDDLDEGPIIEQVVERVDHSYRPEQLLAVGRDVECITLARAVKAFIERRVFLNGDRTVVFQ | soluble
13 | MDIMQGPSESFVDFANRLIKAVEGSDLPPSARAPVIIDCFRQKSQPDIQQLIRTAPSTLTTPGEIIKYVLDRQKTAPLTDQGIAAAMSSAIQPLIM | soluble
14 | GHMAAPILKDVVAYVEVWSSNGTENYSKTFTTQLVDMGAKVSKTFNKQVTHVIFKDGYQSTWDKAQKRGVKLVSVLWVEKCRTAGAHIDESLFPAANMNEHLS | soluble
